Assay results as given in PMC10954469, “Molecular and thermodynamic determinants of self-assembly and hetero-oligomerization in the enterobacterial thermo-osmo-regulatory protein H-NS” (Nucleic Acids Research, 2024).

B2: H-NS (histone-like or heat-stable nucleoid structuring protein), wild type (natural protein, uropathogenic E. coli)
chain: MSEALKILNNIRTLRAQARECTLETLEEMLEKLEVVVNERREEESAAAAEVEERTRKLQQYREMLIADGIDPNELLNSLAAVKSGTKAKRAQRPAKYSYVDENGETKTWTGQGRTPAVIKKAMDEQGKSLDDFLIKQ
notes: H-NS from uropathogenic E. coli, 137 residues as printed; Polydisperse in solution: monomers, dimers, tetramers and octamers; Expressed as H-NS:intein:CBD fusion; also called H-NS WT; wild-type H-NS; source: E. coli BL21(DE3), pTXB1 vector, purified (chitin column, intein cleavage, Superdex 200 SEC)

Key:
[1] = molecular target: the molecule itself; experiment: AUC + other: differential scanning calorimetry; parameters of the thermodynamic model that best capture the AUC and DSC observations; defined at the reference temperature TO 333 K; 300 mM ionic strength, pH 7; tetramer to dimers and octamer to tetramers (one constant KO for both steps)
[2] = molecular target: the molecule itself; experiment: AUC + other: differential scanning calorimetry; thermodynamic model set semi-quantitatively to match AUC populations (20 °C) and DSC thermograms; constant predicted by the model for 37 °C; 300 mM ionic strength, pH 7; tetramer to dimers and octamer to tetramers (one constant KO for both steps)
[3] = molecular target: the molecule itself; experiment: AUC + other: differential scanning calorimetry; thermodynamic model set semi-quantitatively to match AUC populations (20 °C) and DSC thermograms; constant predicted by the model for 25 °C; 300 mM ionic strength, pH 7; dimer to monomers
[4] = molecular target: the molecule itself; experiment: AUC + other: differential scanning calorimetry; thermodynamic model set semi-quantitatively to match AUC populations (20 °C) and DSC thermograms; constant predicted by the model for 25 °C; 300 mM ionic strength, pH 7; tetramer to dimers and octamer to tetramers (one constant KO for both steps)
[5] = molecular target: the molecule itself; experiment: AUC + other: differential scanning calorimetry; thermodynamic model set semi-quantitatively to match AUC populations (20 °C) and DSC thermograms; constant predicted by the model for 13 °C; 300 mM ionic strength, pH 7; tetramer to dimers and octamer to tetramers (one constant KO for both steps)
[6] = molecular target: the molecule itself; experiment: AUC + other: differential scanning calorimetry; thermodynamic model set semi-quantitatively to match AUC populations (20 °C) and DSC thermograms; constant predicted by the model for 13 °C; 300 mM ionic strength, pH 7; dimer to monomers
[7] = molecular target: the molecule itself; experiment: AUC + other: differential scanning calorimetry; thermodynamic model (octamer, tetramer, dimer, folded and unfolded monomer) whose parameters were set semi-quantitatively to match AUC populations (20 °C) and DSC thermograms; constant predicted by the model for 13 °C; 150 mM ionic strength, pH 7; dimer to monomers
[8] = molecular target: the molecule itself; experiment: AUC + other: differential scanning calorimetry; parameters of the thermodynamic model that best capture the AUC and DSC observations; defined at the reference temperature TO 333 K; 150 mM ionic strength, pH 7; tetramer to dimers and octamer to tetramers (one constant KO for both steps)
[9] = molecular target: the molecule itself; experiment: AUC + other: differential scanning calorimetry; thermodynamic model set semi-quantitatively to match AUC populations (20 °C) and DSC thermograms; constant predicted by the model for 13 °C; 150 mM ionic strength, pH 7; tetramer to dimers and octamer to tetramers (one constant KO for both steps)
[10] = molecular target: the molecule itself; experiment: AUC + other: differential scanning calorimetry; parameters of the thermodynamic model that best capture the AUC and DSC observations; defined at the reference temperature TD 333 K; 150 mM ionic strength, pH 7; dimer to monomers
[11] = molecular target: the molecule itself; experiment: AUC + other: differential scanning calorimetry; thermodynamic model set semi-quantitatively to match AUC populations (20 °C) and DSC thermograms; constant predicted by the model for 37 °C; 300 mM ionic strength, pH 7; dimer to monomers
[12] = molecular target: the molecule itself; experiment: AUC + other: differential scanning calorimetry; parameters of the thermodynamic model that best capture the AUC and DSC observations; defined at the reference temperature TD 333 K; 300 mM ionic strength, pH 7; dimer to monomers
[13] = molecular target: the molecule itself; experiment: AUC + other: differential scanning calorimetry; thermodynamic model brought into semi-quantitative agreement with AUC populations and DSC curves; 150 mM ionic strength, pH 7; constant at 37°C; tetramer to dimers and octamer to tetramers (one constant KO for both)
[14] = molecular target: the molecule itself; experiment: AUC + other: differential scanning calorimetry; thermodynamic model brought into semi-quantitative agreement with AUC populations and DSC curves; 150 mM ionic strength, pH 7; constant at 37°C; dimer to monomers
[15] = molecular target: the molecule itself; experiment: AUC + other: differential scanning calorimetry; thermodynamic model brought into semi-quantitative agreement with AUC populations and DSC curves; 150 mM ionic strength, pH 7; constant at 25°C; tetramer to dimers and octamer to tetramers (one constant KO for both)
[16] = molecular target: the molecule itself; experiment: AUC + other: differential scanning calorimetry; thermodynamic model brought into semi-quantitative agreement with AUC populations and DSC curves; 150 mM ionic strength, pH 7; constant at 25°C; dimer to monomers
[17] = molecular target: B2; experiment: fluorescence polarisation; steady-state tryptophan (W109) anisotropy of 2 μM wild-type H-NS with 30 nM to 50 μM H-NSm, 150 mM ionic strength, pH 7, 13, 25 and 37°C; settings: both partners purified
[18] = molecular target: T1, Cnu, co-repressor of the Hha family (E. coli, UniProt P64467 1-71); experiment: other fluorescence titration; tryptophan (W67) emission of 2 μM Cnu, excitation 295 nm, with 30 nM to 50 μM tryptophan-free H-NS variant; intensity-averaged wavenumber; Hill equation, apparent (K1/2); 150 mM ionic strength, pH 7, 25°C; settings: both partners purified
T1 construct: Cnu, a member of the Hha family in E. coli; harbors a sole tryptophan (W67)
T1 sequence (looked up): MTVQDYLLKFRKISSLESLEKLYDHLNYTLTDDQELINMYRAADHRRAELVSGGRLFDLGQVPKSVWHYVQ

[19] = molecular target: T1, Cnu, co-repressor of the Hha family; experiment: other fluorescence titration; tryptophan (W67) emission of 2 μM Cnu, excitation 295 nm, with 30 nM to 50 μM tryptophan-free H-NS variant; intensity-averaged wavenumber; Hill equation, apparent (K1/2); 300 mM ionic strength, pH 7, 25°C; settings: both partners purified
[20] = molecular target: the molecule itself; experiment: AUC; sedimentation velocity, 20°C, 150 mM ionic strength, pH 7, 15-200 μM protein, c(s) analysis with SEDFIT

B1: H-NS (histone-like or heat-stable nucleoid structuring protein) (natural protein, E. coli (uropathogenic))
chain: MSEALKILNNIRTLRAQARECTLETLEEMLEKLEVVVNERREEESAAAAEVEERTRKLQQYREMLIADGIDPNELLNSLAAVKSGTKAKRAQRPAKYSYVDENGETKTWTGQGRTPAVIKKAMDEQGKSLDDFLIKQ
notes: H-NS from uropathogenic E. coli, whole protein as printed in the methods; Expressed as the fusion H-NS:intein:CBD and released by cleavage with beta-mercaptoethanol; also called WT H-NS; wild-type H-NS; source: E. coli BL21(DE3), pTXB1 vector, purified (chitin column, intein-mediated cleavage, Superdex 200 SEC)
Question: Which Kd [1] does the source give for B1 here?
Answer: The Kd was 100 µM.

Question: And the Kd [2]?
Answer: The Kd was 34.5 µM.

Question: What about the Kd [3] of the same binder?
Answer: The Kd was 4.22 µM.

Question: And the Kd [4]?
Answer: The Kd was 18.5 µM.

Question: And the Kd [5]?
Answer: The Kd was 9.39 µM.

Question: And the Kd [6]?
Answer: The Kd was 1.19 µM.

Question: What about the Kd [7] of the same binder?
Answer: The Kd was 0.0238 µM.

Question: What about the Kd [8] of the same binder?
Answer: Its Kd is 100 µM.

Question: And the Kd [9]?
Answer: The Kd was 17 µM.

Question: What about the Kd [10] of the same binder?
Answer: The Kd was 1000 µM.

Question: And the Kd [11]?
Answer: Its Kd is 13.6 µM.

Question: And the Kd [12]?
Answer: The Kd was 100 µM.

Question: Which results are given for B2?
Answer: Kd [13]: ~45 µM; Kd [14]: ~8 µM; Kd [15]: ~30 µM; Kd [16]: ~0.5 µM

B3: H-NSm (W109F H-NS), tryptophan null variant of H-NS (natural protein)
chain: MSEALKILNNIRTLRAQARECTLETLEEMLEKLEVVVNERREEESAAAAEVEERTRKLQQYREMLIADGIDPNELLNSLAAVKSGTKAKRAQRPAKYSYVDENGETKTFTGQGRTPAVIKKAMDEQGKSLDDFLIKQ
notes: H-NS from uropathogenic E. coli; also called H-NS tryptophan variant; source: E. coli BL21(DE3), pTXB1 vector, purified following identical protocols as H-NS
Question: Does B3 bind [17]?
Answer: Result: binds

Question: What about the Kd [18] of the same binder?
Answer: Its Kd is 4 µM.

Question: And the Kd [19]?
Answer: Its Kd is 12 µM.

B4: H-NS Y61E, phosphomimetic mutant (natural protein)
chain: MSEALKILNNIRTLRAQARECTLETLEEMLEKLEVVVNERREEESAAAAEVEERTRKLQQEREMLIADGIDPNELLNSLAAVKSGTKAKRAQRPAKYSYVDENGETKTWTGQGRTPAVIKKAMDEQGKSLDDFLIKQ
notes: H-NS from uropathogenic E. coli; also called Y61E mutant; source: E. coli BL21(DE3), pTXB1 vector, purified following identical protocols as H-NS
Question: With B4 as the binder, how does the “stoichiometry N” value [20] read?
Answer: Its value is 2.

B5: Y61Em (Y61E/W109F H-NS) (natural protein)
chain: MSEALKILNNIRTLRAQARECTLETLEEMLEKLEVVVNERREEESAAAAEVEERTRKLQQEREMLIADGIDPNELLNSLAAVKSGTKAKRAQRPAKYSYVDENGETKTFTGQGRTPAVIKKAMDEQGKSLDDFLIKQ
notes: H-NS from uropathogenic E. coli; source: E. coli BL21(DE3), pTXB1 vector, purified following identical protocols as H-NS
Question: With B5 as the binder, how does the Kd [18] read?
Answer: Its Kd is 1.6 µM.
